In assay [1] the target is T1, NY-ESO-1 peptide on HLA-A*02:01 (human).
T1 peptide: SLLMWITQC
Put plainly: multimer staining.

In assay [2] the target is T1, NY-ESO-1 peptide on HLA-A*02:01. Put plainly: activation reporter or marker.

B1: NY7JSY (TCR, V domains shown)
Valpha: QKEVEQNSGPLSVPEGAIASLNCTYSDRGSQSFFWYRQYSGKSPELIMFIYSNGDKEDGRFTAQLNKASQYVSLLIRDSQPSDSATYLCAVMRAGGFKTIFGAGTRLFVKA
Vbeta: DSGVTQTPKHLITATGQRVTLRCSPRSGDLSVYWYQQSLDQGLQFLIQYYNGEERAKGNILERFSAQQFPDLHSELNLSSLELGDSALYFCASSVVDGEQYFGPGTRLTVT
With B1, in assay [1], the binding result was “recognises”.

B2: NY7 variant TCR ID 5 (Table A) (TCR, V domains shown)
Valpha: QKEVEQNSGPLSVPEGAIASLNCTYSDRWSQSFFWYRQYSGKSPELIMFIYSNGDKEDGRFTAQLNKASQYVSLLIRDSQPSDSATYLCAVMRAGGFKTIFGAGTRLFVKA
Vbeta: DSGVTQTPKHLITATGQRVTLRCSPRSGDLSVYWYQQSLDQGLQFLIQYYNGEERAKGNILERFSAQQFPDLHSELNLSSLELGDSALYFCASSVVDGEQYFGPGTRLTVT
Regarding B2, the binding result in assay [2] is on record as “recognises”.

Source of the values: patent US12584107B2 (dated 2026).
